From patent US20220220218A1 (JIANGSU HENGRUI MEDICINE, published 2022) come the findings set out here.

The Kd is the concentration at which binding is half-saturated. Read a low Kd as a tighter complex. Usually koff stands for the first-order rate constant of dissociation. High values mean fast dissociation, low ones slow dissociation. As usually defined, the kon is the rate constant with which the complex forms. A lower kon goes with slow association.

The target in this assay is T1, human CD73 (huCD73) protein, antigen of the Biacore assay (human, UniProt P21589 27-547, limits assumed).
T1 construct: also called human CD73 antigen
T1 sequence (looked up): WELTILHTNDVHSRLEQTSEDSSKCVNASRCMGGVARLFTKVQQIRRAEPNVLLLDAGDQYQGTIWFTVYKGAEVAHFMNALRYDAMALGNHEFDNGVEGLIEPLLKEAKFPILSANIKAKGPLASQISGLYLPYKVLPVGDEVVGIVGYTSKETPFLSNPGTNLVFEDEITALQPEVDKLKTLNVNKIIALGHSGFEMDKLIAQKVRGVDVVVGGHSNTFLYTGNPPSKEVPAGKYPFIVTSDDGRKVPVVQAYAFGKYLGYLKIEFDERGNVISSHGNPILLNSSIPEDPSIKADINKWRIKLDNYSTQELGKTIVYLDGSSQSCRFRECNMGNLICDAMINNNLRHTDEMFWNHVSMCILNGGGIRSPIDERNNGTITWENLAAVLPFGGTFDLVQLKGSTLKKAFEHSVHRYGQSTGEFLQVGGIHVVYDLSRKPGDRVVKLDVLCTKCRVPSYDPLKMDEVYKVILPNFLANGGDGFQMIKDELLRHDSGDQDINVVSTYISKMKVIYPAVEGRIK
In words: SPR Biacore T200; antibody captured on Protein A chip, CD73 in flow; 1:1 Langmuir. From the text:
In this experiment, Biacore instrument was used to determine the affinity of the humanized anti-CD73 antibodies to be tested with human CD73 (huCD73) and monkey CD73 (cynoCD73).
A certain amount of test antibody was affinity-captured with Protein A biosensing chip (Cat. #29127556, GE), and then a certain concentration of human or monkey CD73 antigen was allowed to flow through the surface of the chip. The reaction signals were detected in real time with Biacore instrument (Biacore T200, GE) to generate a binding and dissociation curve. At the end of each cycle, after the dissociation was completed, the biosensor chip was washed and regenerated with Glycine-HCl, pH1.5 (Cat. #BR-1003-54, GE). The running buffer for the assay was 1×HBS-EP buffer solution (Cat. #BR-1001-88, GE).
The data obtained from the experiment was fitted against (1:1) Langmuir model using GE Biacore T200 Evaluation version 3.0 software, and the affinity values were obtained, as shown in Table 12 and Table 13 for details.
A general note: Surface plasmon resonance follows binding to a sensor surface in real time, without labels.

B1: Hab110.23 (antibody, V domains shown)
VH: EVQLVQSGAEVKKPGASVKVSCKASGYTFTSYTMHWVRQAPGQRLEWIGYINPNSFYIEYNQKFKDRATLTADTSASTAYMELSSLRSEDTAVYYCARGDYDLFYDMDNWGQGTTVTVSS
VL: DIQMTQSPSSLSASVGDRVTITCRASQDIGNSLNWLQQKPGKAIKRLIYATFRLDSGVPSRFSGSRSGTEYTLTISSLQPEDFATYYCQQYASFPWTFGGGTKVEIK
notes: VL2 + VH3; recombined with human heavy and light constant regions
B1: the Kd is 0.166 nM, the koff worked out at 5.43e-05 s⁻¹ and the association rate constant (kon) came out at 327000 M⁻¹ s⁻¹.

B2: Hab127.32 (antibody, V domains shown)
VH: EVQLVQSGAEVKKPGASVKVSCKASGYTFTAYFMNWVMQAPGQGLEWMGRIYHNNGDTFYSQKFKGRVTMTVDKSTSTVYMELSSLRSEDTAVYYCATSYVGDWGQGTTVTVSS
VL: DIQMTQSPSSLSASVGDRVTITCRASQDIGDSLNWLQQKPGGALKRLIYATSSLDSGVPSRFSGSGSGTEYTLTISSLQPEDFATYYCLQYASFPWTFGGGTKVEIK
notes: VL3 + VH2; recombined with human heavy and light constant regions
B2 registered a Kd of 0.277 nM, an off-rate (koff) of 4.6e-05 s⁻¹ and a kon of 166000 M⁻¹ s⁻¹.

B3: Hab127.31 (antibody, V domains shown)
VH: EVQLVQSGAEVKKPGASVKVSCKASGYTFTAYFMNWVRQAPGQGLEWMGRIYHNNGDTFYSQKFKGRVTMTVDKSTSTVYMELSSLRSEDTAVYYCATSYVGDWGQGTTVTVSS
VL: DIQMTQSPSSLSASVGDRVTITCRASQDIGDSLNWLQQKPGGALKRLIYATSSLDSGVPSRFSGSGSGTEYTLTISSLQPEDFATYYCLQYASFPWTFGGGTKVEIK
notes: VL3 + VH1; recombined with human heavy and light constant regions
Molecule B3 showed a Kd of 0.257 nM, an off-rate constant (koff) of 4.2e-05 s⁻¹ and an on-rate (kon) of 163000 M⁻¹ s⁻¹.

B4: Hab110.34 (antibody, V domains shown)
VH: EVQLVQSGAEVKKPGASVKVSCKASGYTFTSYTMHWVRQAPGQRLEWIGYINPNSFYIEYNQKFKDKATLTADTSASTAYMELSSLRSEDTAVYYCARGDYDLFYDMDNWGQGTTVTVSS
VL: DIQMTQSPSSLSASVGDRVTITCRASQDIGNSLNWLQQKPGGAIKRLIYATFRLDSGVPSRFSGSRSGTEYTLTISSLQPEDFADYYCQQYASFPWTFGGGTKVEIK
notes: VL3 + VH4; recombined with human heavy and light constant regions
Take B4: the Kd is 0.228 nM, the off-rate constant (koff) worked out at 8.16e-05 s⁻¹ and the on-rate (kon) worked out at 358000 M⁻¹ s⁻¹.

B5: Hab127.13 (antibody, V domains shown)
VH: EVQLVQSGAEVKKPGASVKVSCKASGYTFTAYFMNWVMQAPGQGLEWIGRIYHNNGDTFYSQKFKGRATLTVDKSTSTVYMELSSLRSEDTAVYYCATSYVGDWGQGTTVTVSS
VL: DIQMTQSPSSLSASVGDRVTITCRASQDIGDSLNWYQQKPGKAPKRLIYATSSLDSGVPSRFSGSGSGTEFTLTISSLQPEDFATYYCLQYASFPWTFGGGTKVEIK
notes: VL1 + VH3; recombined with human heavy and light constant regions
In the case of B5, the affinity, expressed as Kd, was 0.79 nM; the off-rate constant (koff) is 0.000119 s⁻¹; the kon came out at 150000 M⁻¹ s⁻¹.

B6: Hab110.25 (antibody, V domains shown)
VH: EVQLVQSGAEVKKPGASVKVSCKASGYTFTSYTMHWVKQAPGQGLEWIGYINPNSFYIEYNQKFKDKATLTADTSASTAYMELSSLRSEDTAVYYCARGDYDLFYDMDNWGQGTTVTVSS
VL: DIQMTQSPSSLSASVGDRVTITCRASQDIGNSLNWLQQKPGKAIKRLIYATFRLDSGVPSRFSGSRSGTEYTLTISSLQPEDFATYYCQQYASFPWTFGGGTKVEIK
notes: VL2 + VH5; recombined with human heavy and light constant regions
B6: the Kd worked out at 0.223 nM, the koff was determined as 7.79e-05 s⁻¹ and the kon was 349000 M⁻¹ s⁻¹.

B7: Hab110.35 (antibody, V domains shown)
VH: EVQLVQSGAEVKKPGASVKVSCKASGYTFTSYTMHWVKQAPGQGLEWIGYINPNSFYIEYNQKFKDKATLTADTSASTAYMELSSLRSEDTAVYYCARGDYDLFYDMDNWGQGTTVTVSS
VL: DIQMTQSPSSLSASVGDRVTITCRASQDIGNSLNWLQQKPGGAIKRLIYATFRLDSGVPSRFSGSRSGTEYTLTISSLQPEDFADYYCQQYASFPWTFGGGTKVEIK
notes: VL3 + VH5; recombined with human heavy and light constant regions
As for B7, the dissociation constant Kd stood at 0.244 nM, the off-rate (koff) was 9.4e-05 s⁻¹ and the on-rate constant (kon) was 385000 M⁻¹ s⁻¹.

B8: Hab127.22 (antibody, V domains shown)
VH: EVQLVQSGAEVKKPGASVKVSCKASGYTFTAYFMNWVMQAPGQGLEWMGRIYHNNGDTFYSQKFKGRVTMTVDKSTSTVYMELSSLRSEDTAVYYCATSYVGDWGQGTTVTVSS
VL: DIQMTQSPSSLSASVGDRVTITCRASQDIGDSLNWLQQKPGKAPKRLIYATSSLDSGVPSRFSGSGSGTEYTLTISSLQPEDFATYYCLQYASFPWTFGGGTKVEIK
notes: VL2 + VH2; recombined with human heavy and light constant regions
Molecule B8 yielded a Kd of 0.292 nM, a dissociation rate constant (koff) of 4.86e-05 s⁻¹ and a kon of 166000 M⁻¹ s⁻¹.

B9: Hab110.24 (antibody, V domains shown)
VH: EVQLVQSGAEVKKPGASVKVSCKASGYTFTSYTMHWVRQAPGQRLEWIGYINPNSFYIEYNQKFKDKATLTADTSASTAYMELSSLRSEDTAVYYCARGDYDLFYDMDNWGQGTTVTVSS
VL: DIQMTQSPSSLSASVGDRVTITCRASQDIGNSLNWLQQKPGKAIKRLIYATFRLDSGVPSRFSGSRSGTEYTLTISSLQPEDFATYYCQQYASFPWTFGGGTKVEIK
notes: VL2 + VH4; recombined with human heavy and light constant regions
B9 returned a Kd of 0.188 nM, an off-rate constant (koff) of 6.2e-05 s⁻¹ and a kon of 330000 M⁻¹ s⁻¹.

B10: Hab110.31 (antibody, V domains shown)
VH: EVQLVQSGAEVKKPGASVKVSCKASGYTFTSYTMHWVRQAPGQRLEWMGYINPNSFYIEYNQKFKDRVTITRDTSASTAYMELSSLRSEDTAVYYCARGDYDLFYDMDNWGQGTTVTVSS
VL: DIQMTQSPSSLSASVGDRVTITCRASQDIGNSLNWLQQKPGGAIKRLIYATFRLDSGVPSRFSGSRSGTEYTLTISSLQPEDFADYYCQQYASFPWTFGGGTKVEIK
notes: as for B3
Molecule B10 showed a dissociation constant (Kd) of 0.161 nM, a dissociation rate constant (koff) of 5.86e-05 s⁻¹ and a kon of 364000 M⁻¹ s⁻¹.

B11: Hab127.23 (antibody, V domains shown)
VH: EVQLVQSGAEVKKPGASVKVSCKASGYTFTAYFMNWVMQAPGQGLEWIGRIYHNNGDTFYSQKFKGRATLTVDKSTSTVYMELSSLRSEDTAVYYCATSYVGDWGQGTTVTVSS
VL: DIQMTQSPSSLSASVGDRVTITCRASQDIGDSLNWLQQKPGKAPKRLIYATSSLDSGVPSRFSGSGSGTEYTLTISSLQPEDFATYYCLQYASFPWTFGGGTKVEIK
notes: as for B1
Molecule B11 registered an equilibrium dissociation constant (Kd) of 0.276 nM, an off-rate (koff) of 4.59e-05 s⁻¹ and a kon of 166000 M⁻¹ s⁻¹.

B12: Hab127.24 (antibody, V domains shown)
VH: EVQLVQSGAEVKKPGASVKVSCKASGYTFTAYFMNWVMQAPGQSLEWIGRIYHNNGDTFYSQKFKGRATLTVDKSTSTVYMELRSLRSEDTAVYYCATSYVGDWGQGTTVTVSS
VL: DIQMTQSPSSLSASVGDRVTITCRASQDIGDSLNWLQQKPGKAPKRLIYATSSLDSGVPSRFSGSGSGTEYTLTISSLQPEDFATYYCLQYASFPWTFGGGTKVEIK
notes: as for B9
B12: the Kd stood at 0.28 nM, the koff was 4.48e-05 s⁻¹ and the on-rate constant (kon) was determined as 160000 M⁻¹ s⁻¹.

B13: Hab110.22 (antibody, V domains shown)
VH: EVQLVQSGAEVKKPGASVKVSCKASGYTFTSYTMHWVRQAPGQRLEWMGYINPNSFYIEYNQKFKDRVTITADTSASTAYMELSSLRSEDTAVYYCARGDYDLFYDMDNWGQGTTVTVSS
VL: DIQMTQSPSSLSASVGDRVTITCRASQDIGNSLNWLQQKPGKAIKRLIYATFRLDSGVPSRFSGSRSGTEYTLTISSLQPEDFATYYCQQYASFPWTFGGGTKVEIK
notes: as for B8
Consider B13, for which the dissociation constant Kd was determined as 0.147 nM, the koff was determined as 4.95e-05 s⁻¹ and the kon worked out at 338000 M⁻¹ s⁻¹.

B14: Hab110.32 (antibody, V domains shown)
VH: EVQLVQSGAEVKKPGASVKVSCKASGYTFTSYTMHWVRQAPGQRLEWMGYINPNSFYIEYNQKFKDRVTITADTSASTAYMELSSLRSEDTAVYYCARGDYDLFYDMDNWGQGTTVTVSS
VL: DIQMTQSPSSLSASVGDRVTITCRASQDIGNSLNWLQQKPGGAIKRLIYATFRLDSGVPSRFSGSRSGTEYTLTISSLQPEDFADYYCQQYASFPWTFGGGTKVEIK
notes: as for B2
Molecule B14 gave an equilibrium dissociation constant (Kd) of 0.188 nM, an off-rate constant (koff) of 6.94e-05 s⁻¹ and a kon of 370000 M⁻¹ s⁻¹.

B15: Hab127.21 (antibody, V domains shown)
VH: EVQLVQSGAEVKKPGASVKVSCKASGYTFTAYFMNWVRQAPGQGLEWMGRIYHNNGDTFYSQKFKGRVTMTVDKSTSTVYMELSSLRSEDTAVYYCATSYVGDWGQGTTVTVSS
VL: DIQMTQSPSSLSASVGDRVTITCRASQDIGDSLNWLQQKPGKAPKRLIYATSSLDSGVPSRFSGSGSGTEYTLTISSLQPEDFATYYCLQYASFPWTFGGGTKVEIK
notes: VL2 + VH1; recombined with human heavy and light constant regions
Molecule B15 gave a Kd of 0.333 nM, a koff of 5.4e-05 s⁻¹ and an on-rate (kon) of 162000 M⁻¹ s⁻¹.

B16: Hab127.14 (antibody, V domains shown)
VH: EVQLVQSGAEVKKPGASVKVSCKASGYTFTAYFMNWVMQAPGQSLEWIGRIYHNNGDTFYSQKFKGRATLTVDKSTSTVYMELRSLRSEDTAVYYCATSYVGDWGQGTTVTVSS
VL: DIQMTQSPSSLSASVGDRVTITCRASQDIGDSLNWYQQKPGKAPKRLIYATSSLDSGVPSRFSGSGSGTEFTLTISSLQPEDFATYYCLQYASFPWTFGGGTKVEIK
notes: VL1 + VH4; recombined with human heavy and light constant regions
Regarding B16, the affinity, expressed as Kd, was 0.847 nM; the off-rate (koff) amounted to 0.000118 s⁻¹; the kon stood at 140000 M⁻¹ s⁻¹.
